Laboratory results from PMC2713992 (Nature immunology, 2009).

Molecular target: complement component 3b (C3b) (human, UniProt P01024 23-667; P01024 749-1663)
Assay: SPR

Chain of complement component 3b (C3b) (P01024 23-667, chain 1 of 2): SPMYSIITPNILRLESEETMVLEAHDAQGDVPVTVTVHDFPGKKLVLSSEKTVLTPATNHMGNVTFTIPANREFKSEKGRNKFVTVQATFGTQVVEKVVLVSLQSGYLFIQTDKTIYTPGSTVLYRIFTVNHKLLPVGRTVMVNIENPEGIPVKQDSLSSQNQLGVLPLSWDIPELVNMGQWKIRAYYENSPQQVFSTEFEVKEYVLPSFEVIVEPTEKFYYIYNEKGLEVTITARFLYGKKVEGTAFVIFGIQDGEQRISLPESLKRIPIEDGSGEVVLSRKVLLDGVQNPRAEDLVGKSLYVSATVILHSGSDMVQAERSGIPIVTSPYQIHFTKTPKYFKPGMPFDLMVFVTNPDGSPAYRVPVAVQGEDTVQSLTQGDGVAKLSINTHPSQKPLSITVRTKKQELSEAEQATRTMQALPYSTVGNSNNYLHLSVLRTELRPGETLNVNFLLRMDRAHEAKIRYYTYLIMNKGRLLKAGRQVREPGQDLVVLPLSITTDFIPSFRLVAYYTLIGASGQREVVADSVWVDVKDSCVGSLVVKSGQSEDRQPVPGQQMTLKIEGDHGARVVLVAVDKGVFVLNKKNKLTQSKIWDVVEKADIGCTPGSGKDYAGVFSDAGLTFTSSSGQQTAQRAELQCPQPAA
Chain of complement component 3b (C3b) (P01024 749-1663, chain 2 of 2): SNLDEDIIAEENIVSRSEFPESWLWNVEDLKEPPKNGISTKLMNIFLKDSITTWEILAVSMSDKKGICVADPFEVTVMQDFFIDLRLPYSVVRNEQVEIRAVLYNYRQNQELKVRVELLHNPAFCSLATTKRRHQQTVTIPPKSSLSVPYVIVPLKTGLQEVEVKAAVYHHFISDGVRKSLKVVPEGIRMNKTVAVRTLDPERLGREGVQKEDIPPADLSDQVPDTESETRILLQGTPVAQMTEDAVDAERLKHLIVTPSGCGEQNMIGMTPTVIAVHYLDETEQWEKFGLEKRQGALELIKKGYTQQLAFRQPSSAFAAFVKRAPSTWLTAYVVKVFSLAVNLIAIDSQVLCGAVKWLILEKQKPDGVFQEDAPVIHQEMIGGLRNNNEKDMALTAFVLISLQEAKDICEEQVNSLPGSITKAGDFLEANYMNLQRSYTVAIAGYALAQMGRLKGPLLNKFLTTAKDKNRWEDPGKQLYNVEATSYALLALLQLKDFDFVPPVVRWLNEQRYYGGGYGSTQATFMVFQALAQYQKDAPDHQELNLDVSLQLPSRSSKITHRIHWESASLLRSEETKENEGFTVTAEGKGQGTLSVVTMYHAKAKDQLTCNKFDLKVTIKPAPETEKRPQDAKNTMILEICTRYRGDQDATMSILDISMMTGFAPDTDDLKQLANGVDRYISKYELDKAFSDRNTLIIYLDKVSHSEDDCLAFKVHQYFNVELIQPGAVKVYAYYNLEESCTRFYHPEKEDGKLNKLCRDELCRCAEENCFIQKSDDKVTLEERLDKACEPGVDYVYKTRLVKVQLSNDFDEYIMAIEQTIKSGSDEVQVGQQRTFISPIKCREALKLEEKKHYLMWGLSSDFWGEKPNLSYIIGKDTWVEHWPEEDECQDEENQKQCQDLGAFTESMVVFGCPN

Kd: 11 ± 2 µM
stoichiometry N: 1
B1: FH(1–4), recombinant N-terminal four CCP domains (CCP1-4, residues 1–246) of human factor H (domain or fragment, UniProt P08603 19-264, looked up)
chain: EDCNELPPRRNTEILTGSWSDQTYPEGTQAIYKCRPGYRSLGNVIMVCRKGEWVALNPLRKCQKRPCGHPGDTPFGTFTLTGGNVFEYGVKAVYTCNEGYQLLGEINYRECDTDGWTNDIPICEVVKCLPVTAPENGKIVSSAMEPDREYHFGQAVRFVCNSGYKIEGDEEMHCSDDGFWSKEKPKCVEISCKSPDVINGSPISQKIIYKENERFQYKCNMGYEYSERGDAVCTESGWRPLPSCEE
